Assay results from article PMC6712278, “Mouse Gut Microbiome-Encoded β-Glucuronidases Identified Using Metagenome Analysis Guided by Protein Structure” (mSystems, 2019).

Key:
BoGUS L2 = system: T1, BoGUS L2; test: p-nitrophenol release, absorbance […] nm, Michaelis-Menten fit; type: biochemical, Bacteroides ovatus; conditions: 50 mM HEPES, 50 mM NaCl, pH 6.5, 37°C
T1 construct: gene GUS; GH2, loop 2 class

[1] = system: O=C(O)[C@H]1O[C@@H](Oc2ccc([N+](=O)[O-])cc2)[C@H](O)[C@@H](O)[C@@H]1O; test: purified protein; conditions: 37°C, at the enzyme's optimal pH (not given)
purified protein = substrate: O=C(O)[C@H]1O[C@@H](Oc2ccc([N+](=O)[O-])cc2)[C@H](O)[C@@H](O)[C@@H]1O; test: purified protein; type: biochemical, Bacteroides uniformis; conditions: 37°C, at the enzyme's optimal pH (not given)

Work on `O=C(O)[C@H]1O[C@@H](Oc2ccc([N+](=O)[O-])cc2)[C@H](O)[C@@H](O)[C@@H]1O` [PNPG, p-nitrophenyl-glucuronide] yielded a Km (BoGUS L2) of 930 ± 70 µM.

“BfGUS mL1 (Bacteroides fragilis NCTC 9343)” showed a Km [1] of 460 ± 60 µM and a kcat [1] of 23 ± 1 s⁻¹.

B1: BuGUS L2 (Bacteroides uniformis str. 3978 T3 ii) (protein)
chain: QRQTQTINDSWKFLKGECTAAADSAFDDSKWTSIHLPHTWNTDAYTEKDYYRGTGWYRRQLTLPQGWKEKQIILRLDAAGKSATIYINGKNVGEHAGGYTACSFNITPFLSFDTPNTLAVCVDNARQDIAPISGDFTFFGGIYRDVWLTAVPNQHFNLTNHGSDGLFISTPQVSEEQATLSIRGEVKNDAPEKATLELTHTIYRPDGTLLQTLKKNIQLKAGETYAFSNEATPVLKPELWTPETPRLYRVETTLRNRKTKTLLDQSNHYTAFRWFRFDGDEGFFLNGKPYKLRGICRHQDQKPIGPALTDEMHRRDFLLMKEMGANFIRISHYPQDDALLEMCDKLGMLAWEEIPIIDIVPNTPGYGDNCERNLREMIRQHYNHPSIITWGYMNEILLVTQRKYKTEAELKPVLERTLALANRLERVLKEEDSTRISTMAFHGSNSYNETGLSKITDIVGWNLYQGWYGGDLTGFEKFLAQQHQNHPTHPMIVSEYGAGSDKRLHSLHPRAFDFSIEYQQKYLEHYLPVLEDTPYICGGTHWNFIDFSSALRDESMPRINNKGLVYADRTPKDVYHYYQAAWRKDIPVLHIASRDWTDRAGVQQGNAPVYLPVKIYTNLSEVELFIDGISLGKQKTENYTATFEVPFSNRNPFLFAQGNYQGKTVQDGLRINFTPIPACLDANNLKGLELAVNVGSQCFFTSDESQLTWLPDQPYAAGSWGYIGGKEGTAQTEIQNTADGPLFQTLRNEIEGYRFDAPQGVYEIELLFTDIFRRNAGIAYQLDRNGQQENRESTFGISINGEVVEESLSPCKESGYFRALRKKYYITNDKEYIDIRFHSTSGTCFLNGIKLRNIY
notes: GH2, loop 2 class
Work on B1 yielded a Km (purified protein) of 520 ± 60 µM and a kcat (purified protein) of 24 ± 1 s⁻¹.
